Tests used:
[1] = molecular target: FITC labeled GKAP C-terminus peptide (CT12) (human); assay: fluorescence polarisation
[2] = molecular target: 6xHis-tagged GH1 or CT43 protein (ligand of the Ni-NTA BLI) (rat) (UniProt P97836); assay: BLI
[3] = molecular target: GST-tagged 12 amino acid ARAP3 peptide (human); assay: BLI
[4] = molecular target: GST-tagged 12 amino acid ATG13 peptide (human); assay: BLI
[5] = molecular target: GST-tagged 12 amino acid mTOR peptide (human); assay: BLI
[6] = molecular target: GST-tagged 12 amino acid βPIX peptide (human); assay: BLI

6xHis-tagged GH1 or CT43 protein (ligand of the Ni-NTA BLI) (rat), sequence (P97836 807-992): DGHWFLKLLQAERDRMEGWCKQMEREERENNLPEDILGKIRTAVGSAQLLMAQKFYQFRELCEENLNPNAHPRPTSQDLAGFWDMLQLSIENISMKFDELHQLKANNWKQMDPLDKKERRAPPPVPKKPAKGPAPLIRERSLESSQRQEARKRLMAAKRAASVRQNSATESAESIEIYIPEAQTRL

Shank1-PDZ G734S variant (domain or fragment)
Kd [1]: 10.6 µM

Shank1-PDZ R679W variant (domain or fragment)
Kd [1]: 325 µM
Kd [2]: 14.5 µM

Shank1-PDZ R736Q variant (domain or fragment)
Kd [1]: 2.55 µM

Shank1-PDZ R743H variant (domain or fragment)
Kd [1]: 7.62 µM

Shank1-PDZ V677M variant (domain or fragment)
Kd [1]: 16.9 µM

wild type Shank1-PDZ domain (domain or fragment)
Kd [1]: 4.59 µM
Kd [2]: 1.5 µM
Kd [3]: 35.8 µM
Kd [4]: 39.1 µM
Kd [5]: 720 µM
Kd [6]: 23.2 µM
